Sequences and labels used below:
T1: ALKBH6 (Arabidopsis thaliana, UniProt Q9SUP1 1-241)
T1 sequence: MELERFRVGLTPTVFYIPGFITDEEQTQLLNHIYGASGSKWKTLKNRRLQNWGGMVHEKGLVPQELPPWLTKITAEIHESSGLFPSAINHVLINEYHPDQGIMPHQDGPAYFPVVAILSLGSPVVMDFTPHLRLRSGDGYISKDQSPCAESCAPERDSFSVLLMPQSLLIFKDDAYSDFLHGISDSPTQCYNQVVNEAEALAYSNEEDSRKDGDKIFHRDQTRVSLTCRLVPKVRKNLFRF

The data set addresses T1, ALKBH6. The data set is described as follows: EMSA; 3, 5, 7 uM protein; 10 mM Tris-HCl pH 8.0, 150 mM NaCl, 1.0 mM EDTA, 10% glycerol; 5.0 pmol RNA in 20 uL, on ice 30 min; 6% native PAGE, 0.25x TBE, 4 °C. The following applies: protein: recombinant; tags: His-TF (pCold TF) fusion, cleaved with HRV 3C protease; Ni-NTA purified; label: 5'-fluorescein.
As to CGUAGGCUACAGAGAAGCCUU (ssRNA) [MAT2A RNA unmodified], the binding result was “binds”.

With GGACGCUUCUUCGACCU (ssRNA) [m5C motif RNA unmodified], the binding result was “binds”.

For GAAUCCGAACUAGUUCU (ssRNA, m6A at position 9) [SOS3 RNA m6A], the binding result is recorded as “binds”.

With GGACGCUUCUUCGACCU (ssRNA, m5C at position 9) [m5C motif RNA m5C], the binding result is on record as “binds”.

Regarding GAAUCCGAACUAGUUCU (ssRNA) [SOS3 RNA unmodified], the binding result was “binds”.

As to CGUAGGCUACAGAGAAGCCUU (ssRNA, m6A at position 11) [MAT2A RNA m6A], the binding result is “binds”.
